Biological target: recombinant human MCP-1 N1pE (human MCP-1 with an N-terminal pyroglutamate)

B1: recombinant human dipeptidyl peptidase 4 (protein)
chain: NKGTDDATADSRKTYTLTDYLKNTYRLKLYSLRWISDHEYLYKQENNILVFNAEYGNSSVFLENSTFDEFGHSINDYSISPDGQFILLEYNYVKQWRHSYTASYDIYDLNKRQLITEERIPNNTQWVTWSPVGHKLAYVWNNDIYVKIEPNLPSYRITWTGKEDIIYNGITDWVYEEEVFSAYSALWWSPNGTFLAYAQFNDTEVPLIEYSFYSDESLQYPKTVRVPYPKAGAVNPTVKFFVVNTDSLSSVTNATSIQITAPASMLIGDHYLCDVTWATQERISLQWLRRIQNYSVMDICDYDESSGRWNCLVARQHIEMSTTGWVGRFRPSEPHFTLDGNSFYKIISNEEGYRHICYFQIDKKDCTFITKGTWEVIGIEALTSDYLYYISNEYKGMPGGRNLYKIQLSDYTKVTCLSCELNPERCQYYSVSFSKEAKYYQLRCSGPGLPLYTLHSSVNDKGLRVLEDNSALDKMLQNVQMPSKKLDFIILNETKFWYQMILPPHFDKSKKYPLLLDVYAGPCSQKADTVFRLNWATYLASTENIIVASFDGRGSGYQGDKIMHAINRRLGTFEVEDQIEAARQFSKMGFVDNKRIAIWGWSYGGYVTSMVLGSGSGVFKCGIAVAPVSRWEYYDSVYTERYMGLPTPEDNLDHYRNSTVMSRAENFKQVEYLLIHGTADDNVHFQQSAQISKALVDVGVDFQAMWYTDEDHGIASSTAHQHIYTHMSHFIKQCFSLP
In the case of B1, the “N-terminal cleavage, Maldi-TOF mass spectrometry” value is reported as “MCP-1 is protected by a N-terminal pGlu-residue, which confers resistance against N-terminal cleavage by aminopeptidases, e.g. DP4”.

— patent US20110212853
